System: BJ-5ta cells
Assay: Percentage of spread cells / cell spreading on TGT surfaces
Assay type: cell-based, human
Conditions: 1 h after seeding
Experimental: Glass coverslips were densely PEGylated to minimize non-specific interactions such as the binding of cell-secreted extracellular matrix proteins. Coverslips cleaned by piranha etching solution (a 3:1 mixture of sulfuric acid and hydrogen peroxide) were incubated in silanization solution (UCT, 1760-24-3; 2% aminosilane and 5% acetic acid in methanol) for 30 min and reacted with a mixture of Polyethylene glycol (PEG) with and without biotin (1:19, 150 mg/ml; Laysan Bio, Biotin-PEG-SVA-5000 and MPEG-SVA-5000) for 4 h. Surfaces were washed thoroughly and dried using nitrogen gas after each step. A 3D-printed dish (PLA) or a silicon gasket (Grace Bio Labs, 103280) was attached to the coverslip to form a dish. Neutravidin (Thermo Fisher scientific, 31000; 0.4 mg/ml) was added to the dish for 10 min and washed out thoroughly. […]
The cells were gently harvested by washing in PBS for 1 min, incubating with 0.05% trypsin for 3 min, and then neutralizing with cell culture medium (FBS 10%). […] A Nikon Eclipse Ti microscope equipped with Xenon arc lamp, Nikon perfect focus system, custom total internal reflection fluorescence microscopy (TIRFM) module, and custom reflection interference contrast microscopy (RICM) module was driven by Elements software. […] Images were recorded using an electron-multiplying charge-coupled device (EMCCD; Andor iXon 888). […]

B1: vitronectin: physiologic macromolecular ligand with RGD motif (protein, UniProt P04004 20-478, looked up)
Vitronectin: DQESCKGRCTEGFNVDKKCQCDELCSYYQSCCTDYTAECKPQVTRGDVFTMPEDEYTVYDDGEEKNNATVHEQVGGPSLTSDLQAQSKGNPEQTPVLKPEEEAPAPEVGASKPEGIDSRPETLHPGRPQPPAEEELCSGKPFDAFTDLKNGSLFAFRGQYCYELDEKAVRPGYPKLIRDVWGIEGPIDAAFTRINCQGKTYLFKGSQYWRFEDGVLDPDYPRNISDGFDGIPDNVDAALALPAHSYSGRERVYFFKGKQYWEYQFQHQPSQEECEGSSLSAVFEHFAMMQRDSWEDIFELLFWGRTSAGTRQPQFISRDWHGVPGQVDAAMAGRIYISGMAPRPSLAKKQRFRHRNRKGYRSQRGHSRGRNQNSRRPSRATWLSLFSSEESNLGANNYDDYRMDWLVPATCEPIQSVFFFSGDKYYRVNLRTRRVDTVDPPYPRSIAQYWLGCPAPGHL
cell morphology (in words): elongated with irregular lamellipodia
